{
  "source": "paper PMC5909435",
  "binders": {"B1": {"name": "non-specific 18 bp duplex with 13 nt overhang (mixed)", "DNA 1": "GTCACTGTTCGAGCACCA", "DNA 2": "CCATAGATAGCATTGGTGCTCGAACAGTGAC"}},
  "biological_target": "T1, TFAM K4Q4 (acetyl-lysine mimic) (Homo sapiens, UniProt Q00059 43-246, K62Q;K76Q;K111Q;K118Q)",
  "T1 sequence": "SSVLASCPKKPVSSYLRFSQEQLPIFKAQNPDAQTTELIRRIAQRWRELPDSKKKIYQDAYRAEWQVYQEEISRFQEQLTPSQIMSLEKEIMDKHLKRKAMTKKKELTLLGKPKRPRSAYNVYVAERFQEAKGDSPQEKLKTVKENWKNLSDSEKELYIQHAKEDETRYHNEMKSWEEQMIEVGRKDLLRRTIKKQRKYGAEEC",
  "assay": "MST",
  "data": [
    {"binder": "B1", "values": [
      {"measurement": "Kd", "result": "131 ± 17", "unit": "nM"}
    ]}
  ]
}
